Measured values: patent publication US20220177587A1, “METHODS AND USES OF VARIANT CD80 FUSION PROTEINS AND RELATED CONSTRUCTS” (Alpine Immune Sciences, Inc., priority 2018, published 2022)
Residue numbers refer to the chain shown, from its start. Names and notes keep the numbering of the source.

B1: E35D/M47L/Y53F/V68M/A71G/K93R/E95V (protein, UniProt P33681 35-288, looked up, variant E35D M47L Y53F V68M A71G K93R E95V)
T-lymphocyte activation …: VIHVTKEVKEVATLSCGHNVSVEELAQTRIYWQKDKKMVLTMMSGDLNIWPEFKNRTIFDITNNLSIMILGLRPSDEGTYECVVLKYEKDAFRRVHLAEVTLSVKADFPTPSISDFEIPTSNIRRIICSTSGGFPEPHLSWLENGEELNAINTTVSQDPETELYAVSSKLDFNMTTNHSFMCLIKYGHLRVNQTFNWNTTKQEHFPDNLLPSWAITLISVNGIFVICCLTYCFAPRCRERRRNERLRRESVRPV
B2: T13R/Q33L/E35D/M47L/V68M/L85M (protein, UniProt P33681 35-288, looked up, variant T13R Q33L E35D M47L V68M L85M)
T-lymphocyte activation …: B1 T-lymphocyte activation … with T13R, Q33L, F53Y, G71A, L85M, R93K, V95E
B3: T13R/Q33R/E35D/M38I/M47L/V68M (protein, UniProt P33681 35-288, looked up, variant T13R Q33R E35D M38I M47L V68M)
T-lymphocyte activation …: B1 T-lymphocyte activation … with T13R, Q33R, M38I, F53Y, G71A, R93K, V95E
B4: T13R/Q33R/E35D/M38I/M47L/V68M/L85M (protein, UniProt P33681 35-288, looked up, variant T13R Q33R E35D M38I M47L V68M L85M)
T-lymphocyte activation …: B1 T-lymphocyte activation … with T13R, Q33R, M38I, F53Y, G71A, L85M, R93K, V95E
B5: H18Y/E35D/M47L/Y53F/V68M/A71G (protein, UniProt P33681 35-288, looked up, variant H18Y E35D M47L Y53F V68M A71G)
T-lymphocyte activation …: B1 T-lymphocyte activation … with H18Y, R93K, V95E
B6: T13R/Q33L/E35D/M47V/T62S/V68M/L85M (protein, UniProt P33681 35-288, looked up, variant T13R Q33L E35D M47V T62S V68M L85M)
T-lymphocyte activation …: B1 T-lymphocyte activation … with T13R, Q33L, L47V, F53Y, T62S, G71A, L85M, R93K, V95E
B7: H18Y/E35D/V68M/T79M/L85M (protein, UniProt P33681 35-288, looked up, variant H18Y E35D V68M T79M L85M)
T-lymphocyte activation …: B1 T-lymphocyte activation … with H18Y, L47M, F53Y, G71A, T79M, L85M, R93K, V95E
B8: Q33R/E35D/M38I/M47L/V68M (protein, UniProt P33681 35-288, looked up, variant Q33R E35D M38I M47L V68M)
T-lymphocyte activation …: B1 T-lymphocyte activation … with Q33R, M38I, F53Y, G71A, R93K, V95E
B9: H18Y/V22D/E35D/M47V/N48K/V68M (protein, UniProt P33681 35-288, looked up, variant H18Y V22D E35D M47V N48K V68M)
T-lymphocyte activation …: B1 T-lymphocyte activation … with H18Y, V22D, L47V, N48K, F53Y, G71A, R93K, V95E
B10: T13R/Q33R/E35D/M38I/M47L/V68M/E95V/L97Q (protein, UniProt P33681 35-288, looked up, variant T13R Q33R E35D M38I M47L V68M E95V L97Q)
T-lymphocyte activation …: B1 T-lymphocyte activation … with T13R, Q33R, M38I, F53Y, G71A, R93K, L97Q
B11: H18Y/E35D/M38I/M47L/V68M/L85M (protein, UniProt P33681 35-288, looked up, variant H18Y E35D M38I M47L V68M L85M)
T-lymphocyte activation …: B1 T-lymphocyte activation … with H18Y, M38I, F53Y, G71A, L85M, R93K, V95E

Target: T1, CD28 (Homo sapiens, UniProt P10747)
Experiment: Flow binding to Jurkat/IL2 reporter cells (CD28)
Design: host or cells: Jurkat cells expressing an IL-2-luciferase reporter
Settings: Table E11; 33.3 nM; listed as WT CD80 ECD-Fc = 1.0
Procedure, shortened: (§1)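 Cells were first blocked in PBS with 1% BSA and 0.1% sodium azide. Primary staining with fusion protein ran 45 min on ice, and secondary staining with PE anti-human Fc at 1:150 ran 30 min on ice.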

CD28 Fold change to WT CD80	Molecule
12.2	B1
0.5	B2
0.4	B3
0.5	B4
0.5	B5
0.5	B6
33.2	B7
0.5	B8
8.2	B9
35.4	B10
0.5	B11

Same assay, conditions: Table E11; Jurkats (CD28); 33.3 nM

CD28 MFI at 33.3 nM	Molecule
383	B1
15.7	B2
13.8	B3
14.2	B4
15.7	B5
16	B6
1041	B7
15	B8
257	B9
1111	B10
16.7	B11

Same assay, conditions: Table E16; 33.3 nM; listed as CD80 WT IgV-Fc = 1.0

CD28 Fold change to WT CD80	Molecule
11.6	B5

Same assay, conditions: Table E16; consensus variants; Jurkats (CD28); 33.3 nM

CD28 MFI at 33.3 nM	Molecule
478	B5

Target: T1, CD28
Experiment: Jurkat/IL2 + CHO/OKT3 +/- PD-L1 reporter assay: PD-L1-dependent CD28 costimulation
Type: cell-based
Design: host or cells: Jurkat cells expressing an IL-2-luciferase reporter
Settings: Table E13; Jurkat/IL2 + CHO/OKT3/PD-L1; 5.0 nM
Procedure, shortened: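 Readout is relative luminescence from lysed cocultures: test protein given 15 min at room temperature to Jurkat cells before adding CHO artificial APCs displaying OKT3 alone or OKT3 plus PD-L1, then 5 h at 37 °C, 5% CO2.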

Fold Increase over WT CD80-IgV-Fe	Relative Luciferase Units (RLU), CD80 Cone 5.0 nM [RLU]	Molecule
3.9	1546	B1
0.4	153	B2
0.4	152	B3
0.4	153	B4
0.3	120	B5
0.3	136	B6
2.9	1161	B7
0.4	147	B8
2.7	1072	B9
2.5	993	B10
0.5	198	B11

Same assay, conditions: Table E17; Jurkat/IL2 + CHO/OKT3/PD-L1; 5.0 nM

Fold Increase over WT CD80-IgV-Fe	Molecule
5.7	B5

Same assay, conditions: Table E17; consensus variants; Jurkat/IL2 + CHO/OKT3/PD-L1; 5.0 nM

Relative Luciferase Units (RLU), CD80 Cone 5.0 nM [RLU]	Molecule
2277	B5

Target: huCTLA4 (Homo sapiens, UniProt P16410)
Sequence (P16410 36-223): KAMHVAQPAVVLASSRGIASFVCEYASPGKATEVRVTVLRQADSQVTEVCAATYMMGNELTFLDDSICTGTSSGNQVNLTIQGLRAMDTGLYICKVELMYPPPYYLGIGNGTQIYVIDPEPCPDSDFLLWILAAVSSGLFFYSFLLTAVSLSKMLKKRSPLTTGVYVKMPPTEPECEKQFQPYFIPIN
Experiment: Flow binding to CHO cells stably expressing CTLA4
Design: huCTLA4 and huPD-L1, full-length mammalian surface expression constructs were generated; expressed in transfected cells; host or cells: CHO cells, lentiviral transduction, sorted to >98% purity
Settings: Table E11; 33.3 nM; listed as WT CD80 ECD-Fc = 1.0
Procedure, shortened: as §1

CTLA4 Fold change to WT CD80	Molecule
9.1	B1
0.1	B2
0.1	B3
12.6	B4
0.1	B5
0.1	B6
9.3	B7
0.1	B8
9.0	B9
11.8	B10
0.1	B11

Same assay, conditions: Table E11; CHO cells stably expressing CTLA4; 33.3 nM

CTLA4 MFI at 33.3 nM	Molecule
16013	B1
141	B2
193	B3
22011	B4
146	B5
105	B6
16287	B7
107	B8
15798	B9
20652	B10
139	B11

Same assay, conditions: Table E16; 33.3 nM; listed as CD80 WT IgV-Fc = 1.0

CTLA4 Fold change to WT CD80	Molecule
18.7	B5

Same assay, conditions: Table E16; consensus variants; CHO cells stably expressing CTLA4; 33.3 nM

CTLA4 MFI at 33.3 nM	Molecule
19528	B5

Target: huPD-L1 (Homo sapiens, UniProt Q9NZQ7)
Sequence (Q9NZQ7 19-290): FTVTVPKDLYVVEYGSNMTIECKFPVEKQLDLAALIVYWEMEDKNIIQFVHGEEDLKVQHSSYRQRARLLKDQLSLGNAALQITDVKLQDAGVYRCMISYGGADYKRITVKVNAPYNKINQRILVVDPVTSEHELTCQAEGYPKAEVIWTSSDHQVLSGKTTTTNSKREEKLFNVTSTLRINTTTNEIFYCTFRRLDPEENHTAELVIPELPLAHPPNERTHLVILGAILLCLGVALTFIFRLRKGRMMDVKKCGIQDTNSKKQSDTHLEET
Experiment: Flow binding to CHO cells stably expressing PD-L1
Design: huCTLA4 and huPD-L1, full-length mammalian surface expression constructs were generated; expressed in transfected cells; host or cells: CHO cells, lentiviral transduction, sorted to >98% purity
Settings: Table E11; 33.3 nM; listed as WT CD80 ECD-Fc = 1.0
Procedure, shortened: as §1

PD-L1 Fold change to WT CD80	Molecule
485.9	B1
62.7	B2
87.0	B3
21.5	B4
99.1	B5
77.0	B6
289.5	B7
320.4	B8
249.8	B9
372.0	B10
69.7	B11

Same assay, conditions: Table E11; CHO cells stably expressing PD-L1; 33.3 nM

PD-L1 MFI at 33.3 nM	Molecule
25024	B1
3228	B2
4482	B3
1106	B4
5105	B5
3968	B6
14907	B7
16502	B8
12867	B9
19157	B10
3589	B11

Same assay, conditions: Table E11; MFI at 33.3 nM

Ratio of PDL1:CD28	Molecule
65.3	B1
205.6	B2
324.8	B3
77.9	B4
325.2	B5
248.0	B6
14.3	B7
1107.5	B8
50.1	B9
17.2	B10
214.9	B11

Same assay, conditions: Table E16; 33.3 nM; listed as CD80 WT IgV-Fc = 1.0

PD-L1 Fold change to WT CD80	Molecule
135.1	B5

Same assay, conditions: Table E16; MFI at 33.3 nM

Ratio of PDL1:CD28	Molecule
20.0	B5

Same assay, conditions: Table E16; consensus variants; CHO cells stably expressing PD-L1; 33.3 nM

PD-L1 MFI at 33.3 nM	Molecule
9576	B5
